# Measurements from patent US10450368 (DUKE UNIVERSITY, dated 2019).
# B1: CH236 (antibody, V domains shown)
# VH: QVQLVQSGAAVKRPGASVTISCRASGYTFTTYYIHWVRQAPGQRLELMGMIDPSRGRTDYAQKFQGRVTMSRDTSTSTLYMELRSLRPDDTALYYCVRNVGTEGSLLHYDYWGQGTLVTVSS
# VL: EIVLTQSPATLSVSPGERVTLSCRASQSVRNNLAWYRQKRGQAPRLLIYGASTRATGIPARFSGSGSGTEFTLTISSMQSEDFAVYYCQQYNNWWTFGQGTKVEIK
# notes: also called CH236_4A/293i
# B2: CH491 (antibody, V domains shown)
# VH: QVQLVQSGAAVKRPGASVTISCRASGYTFTTYYIHWVRQAPGQGLELMGWINPRGGRTDYSYRFEDRVSMYRDTSMSIVYMDLRNLKSADTAVYYCVRNVGTSGSLLHYDFWGQGSLVTVSS
# VL: EIVLTQSPATLSVSPGERVTLSCRASQSVRNNLAWYRQKRGQAPRLLIYGASTRATGIPARFSGSGSGTEFTLTISSMQSEDFAVYYCQQYNNWWTFGQGTKVEIK
# notes: also called CH235.7; DH491
# Columns and labels:
# [1] = target: CH0505_CON D7gp120/293i; assay: ELISA
# [2] = target: T1, CH505w020.14D8gp120; assay: ELISA
# T1 construct: also called CH505w20.14 gp120
# [3] = target: CH505w136.B18D8gp120; assay: ELISA
# [4] = target: T2, HIV-1 CH505 transmitted/founder gp120 Env (HIV-1); assay: competition ELISA, blocking of CH106 binding to gp120
# T2 construct: domain: gp120; also called CH505.TF gp120; CH505 TF gp120 Env
# [5] = target: T3, CH505.TF mutant gp120 M8 (HIV-1); assay: ELISA
# T3 construct: domain: gp120
# [6] = target: CH505.M10D8gp120; assay: ELISA
# [7] = target: CH505.M5D8gp120293F; assay: ELISA
# [8] = target: CH505.M11D8gp120/293F; assay: ELISA
# [9] = target: CH505.M7D8gp120/293F; assay: ELISA
# [10] = target: T4, CH505.TF mutant gp120 M20 (HIV-1); assay: ELISA
# T4 construct: domain: gp120
# [11] = target: T5, CH505.TF mutant gp120 M6 (HIV-1); assay: ELISA
# T5 construct: domain: gp120
# [12] = target: CH505.M9D8gp120/293F; assay: ELISA
# [13] = target: CH505.M21D8gp120/293F; assay: ELISA
# [14] = target: CH505.M19D8gp120; assay: ELISA
# [15] = target: T6, CH505.w30.12D8gp120; assay: ELISA
# T6 construct: also called CH505w30.12 gp120
# [16] = target: T7, CH505w030.20D8gp120/293F; assay: ELISA
# T7 construct: also called CH505w30.20 gp120
# [17] = target: T8, Histones; assay: AtheNA, Ab 6.25 ug/ml
# T8 construct: Mixture of proteins
# [18] = target: T9, Scl-70 (UniProt P11387 1-765); assay: AtheNA, Ab 6.25 ug/ml
# T9 sequence: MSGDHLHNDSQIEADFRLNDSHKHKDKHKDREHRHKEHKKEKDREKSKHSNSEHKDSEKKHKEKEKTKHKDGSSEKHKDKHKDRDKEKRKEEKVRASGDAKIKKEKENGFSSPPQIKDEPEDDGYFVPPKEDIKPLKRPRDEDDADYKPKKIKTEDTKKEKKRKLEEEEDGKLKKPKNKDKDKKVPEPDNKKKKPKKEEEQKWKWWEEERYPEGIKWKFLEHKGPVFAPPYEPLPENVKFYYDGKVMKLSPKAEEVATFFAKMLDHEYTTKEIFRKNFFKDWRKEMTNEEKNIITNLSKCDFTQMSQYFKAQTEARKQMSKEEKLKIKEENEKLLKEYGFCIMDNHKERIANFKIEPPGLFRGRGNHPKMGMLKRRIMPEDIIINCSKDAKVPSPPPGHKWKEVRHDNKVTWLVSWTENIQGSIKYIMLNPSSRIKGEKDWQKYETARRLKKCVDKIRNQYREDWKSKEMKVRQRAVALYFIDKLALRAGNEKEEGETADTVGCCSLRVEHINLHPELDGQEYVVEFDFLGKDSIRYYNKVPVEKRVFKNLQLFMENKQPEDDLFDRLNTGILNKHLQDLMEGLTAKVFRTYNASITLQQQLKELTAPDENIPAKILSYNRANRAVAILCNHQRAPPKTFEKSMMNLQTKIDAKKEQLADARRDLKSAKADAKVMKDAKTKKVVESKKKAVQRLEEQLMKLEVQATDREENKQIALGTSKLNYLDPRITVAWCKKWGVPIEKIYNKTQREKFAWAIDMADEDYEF
# [19] = target: T10, SSA; assay: AtheNA, Ab 6.25 ug/ml
# T10 construct: also called SSA (Ro)
# [20] = target: T11, RNP (ribonucleoprotein); assay: AtheNA, Ab 6.25 ug/ml
# T11 construct: Protein-RNA complex
# [21] = target: T12, Sm (Smith antigen); assay: AtheNA, Ab 6.25 ug/ml
# T12 construct: Protein complex
# [22] = target: T8, Histones; assay: AtheNA, Ab 25 ug/ml
# [23] = target: T9, Scl-70; assay: AtheNA, Ab 25 ug/ml
# [24] = target: T10, SSA; assay: AtheNA, Ab 25 ug/ml
# [25] = target: T11, RNP (ribonucleoprotein); assay: AtheNA, Ab 25 ug/ml
# [26] = target: T12, Sm (Smith antigen); assay: AtheNA, Ab 25 ug/ml
# [27] = target: T8, Histones; assay: AtheNA, Ab 12.5 ug/ml
# [28] = target: T9, Scl-70; assay: AtheNA, Ab 12.5 ug/ml
# [29] = target: T10, SSA; assay: AtheNA, Ab 12.5 ug/ml
# [30] = target: T11, RNP (ribonucleoprotein); assay: AtheNA, Ab 12.5 ug/ml
# [31] = target: T12, Sm (Smith antigen); assay: AtheNA, Ab 12.5 ug/ml
# [32] = target: T8, Histones; assay: AtheNA, Ab 50 ug/ml
# [33] = target: T10, SSA; assay: AtheNA, Ab 50 ug/ml
# [34] = target: T12, Sm (Smith antigen); assay: AtheNA, Ab 50 ug/ml
# [35] = target: T8, Histones; assay: AtheNA, Ab 6.25 ug/ml; remark: listed apart in the source
# Text: (§1) AtheNA Multi-Lyte ANA Plus Test System is one such assay. This is luminex-based assay, which is also used to screen patient sera.
# [36] = target: T13, Centromere B (UniProt P07199 1-599); assay: AtheNA, Ab 6.25 ug/ml
# T13 construct: also called Cent B
# T13 sequence: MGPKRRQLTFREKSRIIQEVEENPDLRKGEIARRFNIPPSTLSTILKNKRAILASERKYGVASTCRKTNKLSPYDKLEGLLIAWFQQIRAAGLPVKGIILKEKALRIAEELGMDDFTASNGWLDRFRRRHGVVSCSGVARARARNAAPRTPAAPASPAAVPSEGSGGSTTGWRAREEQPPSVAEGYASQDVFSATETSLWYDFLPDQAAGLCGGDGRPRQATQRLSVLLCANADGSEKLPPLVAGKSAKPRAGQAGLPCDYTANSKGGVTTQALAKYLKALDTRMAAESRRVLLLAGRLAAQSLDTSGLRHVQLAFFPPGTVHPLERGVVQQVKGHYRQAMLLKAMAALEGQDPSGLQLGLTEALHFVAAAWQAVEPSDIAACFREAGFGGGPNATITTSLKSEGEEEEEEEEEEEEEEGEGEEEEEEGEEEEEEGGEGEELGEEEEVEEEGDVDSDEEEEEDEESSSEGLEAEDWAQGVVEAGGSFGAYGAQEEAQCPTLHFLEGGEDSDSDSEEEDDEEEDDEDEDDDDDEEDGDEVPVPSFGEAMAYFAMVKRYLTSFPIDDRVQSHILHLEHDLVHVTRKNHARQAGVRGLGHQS
# Text: as §1
# [37] = target: T10, SSA; assay: AtheNA, Ab 6.25 ug/ml; remark: listed apart in the source
# Text: as §1
# [38] = target: T11, RNP (ribonucleoprotein); assay: AtheNA, Ab 6.25 ug/ml; remark: listed apart in the source
# Text: as §1
# [39] = target: T12, Sm (Smith antigen); assay: AtheNA, Ab 6.25 ug/ml; remark: listed apart in the source
# Text: as §1
# [40] = target: T8, Histones; assay: AtheNA, Ab 50 ug/ml; remark: listed apart in the source
# Text: as §1
# [41] = target: T13, Centromere B; assay: AtheNA, Ab 50 ug/ml
# Text: as §1
# [42] = target: T10, SSA; assay: AtheNA, Ab 50 ug/ml; remark: listed apart in the source
# Text: as §1
# [43] = target: T11, RNP (ribonucleoprotein); assay: AtheNA, Ab 50 ug/ml
# Text: as §1
# [44] = target: T12, Sm (Smith antigen); assay: AtheNA, Ab 50 ug/ml; remark: listed apart in the source
# Text: as §1
# [45] = target: T8, Histones; assay: AtheNA, Ab 25 ug/ml; remark: listed apart in the source
# Text: as §1
# [46] = target: T13, Centromere B; assay: AtheNA, Ab 25 ug/ml
# Text: as §1
# [47] = target: T10, SSA; assay: AtheNA, Ab 25 ug/ml; remark: listed apart in the source
# Text: as §1
# [48] = target: T11, RNP (ribonucleoprotein); assay: AtheNA, Ab 25 ug/ml; remark: listed apart in the source
# Text: as §1
# [49] = target: T12, Sm (Smith antigen); assay: AtheNA, Ab 25 ug/ml; remark: listed apart in the source
# Text: as §1
# [50] = target: CH505.TF gp120 delta371I; assay: direct-binding ELISA (OD450), panel 'CH505.TF gp120 delta371I'
# [51] = target: Con S gp120; assay: direct-binding ELISA (OD450), panel 'Con S gp120'
# [52] = target: T5, CH505.TF mutant gp120 M6; assay: direct-binding ELISA (OD450), panel 'CH505.TF gp120 M6'
# [53] = target: T8, Histones; assay: AtheNA, Ab 12.5 ug/ml; remark: listed apart in the source
# Text: as §1
# [54] = target: T13, Centromere B; assay: AtheNA, Ab 12.5 ug/ml
# Text: as §1
# [55] = target: T10, SSA; assay: AtheNA, Ab 12.5 ug/ml; remark: listed apart in the source
# Text: as §1
# [56] = target: T11, RNP (ribonucleoprotein); assay: AtheNA, Ab 12.5 ug/ml; remark: listed apart in the source
# Text: as §1
# [57] = target: T12, Sm (Smith antigen); assay: AtheNA, Ab 12.5 ug/ml; remark: listed apart in the source
# Text: as §1
binder,measurement,setting,value
B1,LogAUC,[1],6.89
same,LogAUC,[2],6.72
same,LogAUC,[3],3.51
same,IC50,[4],82.2 µg/mL
same,LogAUC,[5],0
same,LogAUC,[6],6.07
same,LogAUC,[7],7.27
same,LogAUC,[8],1.43
same,LogAUC,[9],0
same,LogAUC,[10],0
same,LogAUC,[11],6.31
same,LogAUC,[12],0
same,LogAUC,[13],0
same,LogAUC,[14],1.54
same,LogAUC,[15],0.95
same,LogAUC,[16],6.23
same,AtheNA signal,[17],154 relative luminescence units
same,AtheNA signal,[18],31 relative luminescence units
same,AtheNA signal,[19],44 relative luminescence units
same,AtheNA signal,[20],40 relative luminescence units
same,AtheNA signal,[21],184 relative luminescence units
same,AtheNA signal,[22],193 relative luminescence units
same,AtheNA signal,[23],62 relative luminescence units
same,AtheNA signal,[24],224 relative luminescence units
same,AtheNA signal,[25],69 relative luminescence units
same,AtheNA signal,[26],165 relative luminescence units
same,AtheNA signal,[27],234 relative luminescence units
same,AtheNA signal,[28],50 relative luminescence units
same,AtheNA signal,[29],185 relative luminescence units
same,AtheNA signal,[30],78 relative luminescence units
same,AtheNA signal,[31],258 relative luminescence units
same,AtheNA signal,[32],138 relative luminescence units
same,AtheNA signal,[33],177 relative luminescence units
same,AtheNA signal,[34],128 relative luminescence units
B2,LogAUC,[1],9.64
same,LogAUC,[2],9.35
same,AtheNA signal,[35],26
same,AtheNA signal,[36],26
same,AtheNA signal,[37],21
same,AtheNA signal,[38],18
same,AtheNA signal,[39],4
same,AtheNA signal,[40],59
same,AtheNA signal,[41],54
same,AtheNA signal,[42],68
same,AtheNA signal,[43],43
same,AtheNA signal,[44],6
same,AtheNA signal,[45],44
same,AtheNA signal,[46],45
same,AtheNA signal,[47],44
same,AtheNA signal,[48],30
same,AtheNA signal,[49],4
same,LogAUC,[3],3.53
same,EC50 (read off the curve),[50],~8 µg/mL
same,LogAUC,[5],0
same,LogAUC,[6],10.6
same,LogAUC,[7],10.6
same,LogAUC,[8],6.75
same,LogAUC,[9],0
same,LogAUC,[10],0
same,LogAUC,[11],9.21
same,LogAUC,[12],0
same,LogAUC,[13],0
same,LogAUC,[14],6.61
same,LogAUC,[15],3.89
same,LogAUC,[16],8.82
same,EC50 (read off the curve),[51],~0.05 µg/mL
same,EC50 (read off the curve),[52],~0.2 µg/mL
same,AtheNA signal,[53],34
same,AtheNA signal,[54],34
same,AtheNA signal,[55],28
same,AtheNA signal,[56],24
same,AtheNA signal,[57],3
